Assay results published in the supplement of paper PMC10567573.

B1: ZER1 (parent)
chain: KEMARKVIEHCSNFKEENMDTSR
B2: ZNF75A (parent)
chain: RTHTGEQPYTCSICRRNFSRRSSL

Variants of: B1
Experiment: protein stability index of a GFP-peptide fusion (GPS, HEK-293T) (PSI 1-6); higher = more stable
Conditions: c terminus: native
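Also: lentivirally expressed fusions sorted by FACS into six bins by GFP to DsRed ratio, PSI derived from sequencing read proportions per bin multiplied by bin number.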

Variant | protein stability index
F14K | 4.92
F14L | 4.03
F14E | 4.78
F14C | 3.91
F14I | 4.35
F14A | 4.56
F14H | 4.8
F14G | 4.69
F14D | 5.02
M3C | 4.08
M3Q | 4.45
M3D | 4.86
M3Y | 3.29
M3S | 4.64
M3R | 3.98
M3P | 4.78
M3E | 4.53
M3L | 3.52
M3H | 4.05
M3W | 2.28
M3N | 4.14
M3G | 4.37
M3K | 4.36
M3F | 1.72
M3T | 4.3
M3I | 3.29

Variant | protein stability index
M3V | 4.22
M3A | 4.49
R5P | 4.74
R5W | 1.94
R5L | 2.74
R5I | 2.83
R5E | 4.72
R5S | 3.81
R5V | 3.14
R5T | 3.58
R5Q | 3.26
R5C | 3.76
R5Y | 2.68
R5F | 2.48
R5A | 4.4
R5K | 4.15
R5G | 3.65
R5N | 4.01
R5D | 4.9
R5H | 3.72
R5M | 3.13
E9D | 4.11
E9S | 4.26
E9R | 4.01
E9M | 2.96
E9P | 4.58

Variant | protein stability index
E9I | 3.03
E9T | 4.35
E9F | 2.13
E9Q | 4.08
E9L | 2.64
E9H | 3.92
E9V | 3.87
E9K | 4.37
E9W | 1.55
E9G | 4.29
E9C | 4.04
E9Y | 3.16
E9A | 4
E9N | 4.29
C11P | 4.83
C11I | 2.02
C11G | 4.63
C11F | 1.38
C11E | 4.45
C11L | 2.59
C11W | 2.19
C11D | 4.79
C11M | 2.58
C11V | 2.84
C11A | 4.77
C11Y | 2.11

Variant | protein stability index
C11S | 3.96
C11K | 4.94
C11N | 4.26
C11Q | 4.43
C11T | 4.62
C11R | 4.48
C11H | 3.87
N13P | 3.32
N13M | 2.88
N13F | 2.49
N13Y | 3.15
N13Q | 3.07
N13E | 3.69
N13H | 3.53
N13R | 3.11
N13A | 3.28
N13W | 2.4
N13S | 3.33
N13T | 3.68
N13K | 3.85
N13L | 1.92
N13G | 3.5
N13V | 3.05
N13I | 1.93
N13D | 3.61
N13C | 3.04

Variant | protein stability index
K6T | 2.74
K6C | 2.92
K6Y | 1.7
K6P | 4.47
K6L | 1.52
K6E | 4.5
K6W | 2.71
K6V | 2.52
K6I | 2.36
K6R | 2.63
K6N | 3.89
K6F | 1.72
K6G | 4.21
K6A | 3.58
K6H | 3.09
K6Q | 3.73
K6M | 2.14
K6D | 4.19
K6S | 2.96
K1H | 4.3
K1A | 3.7
K1I | 2.95
K1Q | 4.3
K1N | 4.24
K1C | 2.6
K1S | 3.87

Variant | protein stability index
K1L | 2.73
K1G | 4.12
K1P | 3.36
K1F | 2.86
K1V | 3.26
K1R | 4.31
K1T | 3.65
K1D | 4.45
K1M | 2.75
K1W | 2.98
K1Y | 3.31
K1E | 4.81
E2I | 3.27
E2L | 2.76
E2H | 3.12
E2S | 2.74
E2N | 3.4
E2M | 3.42
E2T | 3.39
E2F | 2.11
E2P | 4.13
E2C | 3.12
E2Y | 2.35
E2D | 3.25
E2Q | 3.53
E2G | 2.82

Variant | protein stability index
E2R | 3.57
E2K | 3.44
E2A | 3.23
E2W | 2.01
E2V | 3.52
A4R | 4.15
A4Y | 2.89
A4N | 4.21
A4D | 4.48
A4M | 2.48
A4E | 4.39
A4Q | 4.21
A4H | 4.02
A4G | 4.45
A4L | 2.23
A4P | 4.57
A4I | 2.32
A4S | 4.13
A4F | 1.9
A4K | 4.29
A4V | 2.59
A4C | 3.02
A4T | 3.94
I8P | 4.7
I8W | 1.86
I8F | 3.2

Variant | protein stability index
I8K | 4.91
I8C | 4.42
I8L | 3.13
I8A | 4.58
I8S | 3.92
I8Y | 3.88
I8G | 4.64
I8V | 4.35
I8D | 5.19
I8M | 3.51
I8N | 4.98
I8H | 4.29
I8T | 4.4
I8R | 4.33
I8E | 4.87
I8Q | 4.67
H10G | 4.56
H10L | 1.76
H10Q | 3.83
H10K | 4.78
H10P | 5.17
H10A | 3.49
H10D | 4.06
H10V | 3.33
H10T | 3.98
H10F | 2.78

Variant | protein stability index
H10E | 3.69
H10C | 3.1
H10Y | 1.9
H10M | 1.81
H10R | 3.59
H10W | 2.15
H10I | 1.94
H10S | 3.57
H10N | 4.29
S12C | 2.98
S12P | 4.37
S12E | 3.85
S12V | 2.96
S12Q | 3.55
S12R | 3.25
S12W | 2.63
S12I | 2.56
S12M | 2.54
S12Y | 2.73
S12L | 2.45
S12G | 4.21
S12H | 3.66
S12N | 3.95
S12D | 4.24
S12K | 3.49
S12A | 3.7

Variant | protein stability index
S12F | 2.77
S12T | 3.59
V7H | 1.52
V7T | 4.89
V7N | 5.1
V7Q | 4.87
V7A | 4.87
V7D | 5.26
V7K | 4.88
V7P | 4.46
V7I | 1.59
V7M | 2.44
V7E | 5.27
V7C | 4.55
V7W | 3.19
V7F | 3.83
V7R | 4.65
V7L | 1.92
V7S | 4.98
V7G | 5.13
V7Y | 2.09

Variants of: B2
Experiment: as above
Conditions: c terminus: a fixed tail appended

Variant | protein stability index
L24N | 2.56
L24C | 2.63
L24R | 3.63
L24M | 2.96
L24F | 2.65
L24Q | 3.05
L24E | 4.02
L24I | 2.79
L24W | 1.96
L24Y | 3.03
L24K | 4.06
L24G | 3.1
L24V | 2.29
L24H | 3.23
L24T | 3.03
L24P | 3.82
L24A | 3.02
L24D | 2.71
L24S | 2.99
S23Q | 2.04
S23G | 2.76
S23M | 2.33
S23E | 2.17
S23L | 2.15
S23V | 2.5
S23Y | 1.78
S23F | 1.78

Variant | protein stability index
S23A | 2.67
S23I | 2.13
S23K | 3.2
S23D | 2.28
S23R | 2.9
S23W | 2.34
S23T | 2.72
S23N | 2.63
S23H | 2.32
S23P | 2.94
S23C | 2.85
S22T | 3.27
S22M | 2.25
S22P | 2.76
S22L | 2.91
S22I | 2.77
S22V | 2.93
S22G | 2.51
S22K | 3.16
S22C | 2.64
S22A | 2.86
S22W | 2.42
S22R | 3.55
S22D | 2.3
S22H | 3.5
S22N | 2.65
S22F | 2.81

Variant | protein stability index
S22Q | 2.77
S22Y | 2.99
S22E | 2.77
R21Q | 3.09
R21N | 2.72
R21H | 2.12
R21T | 2.84
R21D | 2.73
R21G | 1.72
R21C | 2.24
R21E | 3.51
R21L | 1.79
R21M | 2.37
R21V | 1.95
R21Y | 1.39
R21K | 2.5
R21I | 1.61
R21A | 1.64
R21S | 1.58
R21P | 1.97
R21F | 1.95
R21W | 2.69
R20W | 1.52
R20V | 2.46
R20Y | 2.24
